This is an account of results in patent US20090143241A1 (PENN STATE RESEARCH FOUNDATION, published 2009).

Where no end group is shown, it is not given here.

For experiment [1], the target named is T1, ClpXP protease (E. coli ClpX6 with ClpP14) (E. coli, UniProt P0A6H1 1-424; P0A6G7 15-207).
T1 construct: Purified recombinant proteins mixed in the assay; also called SspB-ClpXP (when SspB is added); not shown: N-terminal His6 tag from pET28a; C-terminal His6 tag from pQE70
The experiment in a line: GFP-tag proteolysis by ClpXP in the presence of SspB.

Experiment [2] addresses T1, ClpXP protease (E. coli ClpX6 with …). The experiment is described as follows: continuous fluorimetric assay of GFP-tag proteolysis by ClpXP, no SspB.
The target is the same in experiment [3]. The experiment is described as follows: continuous fluorimetric assay of GFP-tag proteolysis by ClpXP, with SspB.
Experiment [4] has the same target. The experiment in a line: kinetic assays with purified peptides and E. coli proteins (GFP-tag proteolysis by ClpXP with SspB).
Experiment [5] shares this target. The experiment in a line: cell-based or functional assay.
The target is the same in experiment [6]. The experiment in a line: kinetic assays with purified peptides and E. coli proteins (GFP-tag proteolysis by ClpXP with SspB); uncompetitive model.
For experiment [7] the target is unchanged. The experiment is described as follows: GFP-tag proteolysis by ClpXP without SspB against with SspB.

T1 sequence (P0A6H1 whole entry, chain 1 of 2): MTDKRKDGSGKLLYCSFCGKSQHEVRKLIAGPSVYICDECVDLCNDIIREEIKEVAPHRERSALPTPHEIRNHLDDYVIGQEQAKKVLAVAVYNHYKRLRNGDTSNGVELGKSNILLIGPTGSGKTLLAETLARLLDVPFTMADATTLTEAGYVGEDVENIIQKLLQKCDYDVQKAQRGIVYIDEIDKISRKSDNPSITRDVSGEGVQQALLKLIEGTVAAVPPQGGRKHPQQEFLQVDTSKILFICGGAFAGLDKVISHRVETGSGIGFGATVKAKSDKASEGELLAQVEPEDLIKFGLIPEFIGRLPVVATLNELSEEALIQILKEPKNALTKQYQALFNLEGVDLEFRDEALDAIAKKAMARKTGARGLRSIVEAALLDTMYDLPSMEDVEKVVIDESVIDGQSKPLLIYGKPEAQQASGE
T1 sequence (P0A6G7 15-207, chain 2 of 2): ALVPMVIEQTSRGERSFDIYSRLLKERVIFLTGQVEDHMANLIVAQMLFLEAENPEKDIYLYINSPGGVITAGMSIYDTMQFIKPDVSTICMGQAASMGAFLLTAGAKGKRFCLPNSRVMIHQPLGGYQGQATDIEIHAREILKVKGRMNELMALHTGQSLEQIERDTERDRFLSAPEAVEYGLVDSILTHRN

B1: cycXB, cyclic XB peptide [CRGGRPALRVVK] (Table 4) (peptide)
peptide: CRGGRPALRVVK
modifications: also: cyclized in vitro, ring type not given here
Broadly, the Ki is a measure of affinity in units of concentration, obtained from inhibition or displacement. In the case of B1, the inhibition constant (Ki) in experiment [1] came to 8.1 µM; in experiment [2], 6 µM; in experiment [3] it was 8 µM. For the same molecule, in experiment [1], the “fold lower KI than the linear XB peptide” value came to 7 fold.

B2: linear XB peptide, CRGGRPALRVVK (peptide)
peptide: CRGGRPALRVVK
notes: The text calls XB the 11 C-terminal residues of E. coli SspB; also called linXB
For the molecule B2, the Ki is 6.4 µM in experiment [1], 56 µM in experiment [4], greater than 1000 µM in experiment [2] and 64 µM in experiment [3].

B3: cyclic XB, RGGRPALRVVK (Table 6) (peptide)
peptide: RGGRPALRVVK
modifications: also: cyclized, ring type not given here
notes: possibly the same preparation as m6; also called cyclic XB peptide
Regarding B3, the “fold lower KI than the linear XB peptide” value in experiment [1] is 7 fold. In experiment [4], this molecule came in with an inhibitory constant (Ki) of 8 µM.

B4: Con62, cyclic SGWPYKWM peptide (peptide)
peptide: SGWPYKWM
modifications: head-to-tail cyclized (cyclic peptide)
notes: Arbitrary cyclic peptide from the SGWX5 library, negative control; also called arbitrary cyclic peptide
Molecule B4 displayed a Ki in experiment [2] greater than 1000 µM.

B5: ICP1, cyclic SGSKGVLPL peptide (peptide)
peptide: SGSKGVLPL
modifications: head-to-tail cyclized (cyclic peptide)
notes: Chemically synthesized linear, circularized and HPLC purified; also called IXP3
As to B5, the Ki in experiment [2] stood at 28 µM; in experiment [3], 25 µM.

B6: IXP1, cyclic SGWYGRRH peptide (peptide)
peptide: SGWYGRRH
modifications: head-to-tail cyclized (cyclic peptide)
notes: also called cyclic IXP1
Turning to B6, the “half-life of λ O with ClpXP and 100 µM IXP1” value in experiment [5] was 73 min. In experiment [6], this molecule registered a Ki of 136 µM.

B7: ICP2, cyclic SGWRVQGPL peptide (peptide)
peptide: SGWRVQGPL
modifications: head-to-tail cyclized (cyclic peptide)
notes: also called IXP4
Regarding B7, the Ki was greater than 1000 µM in experiment [2] and 21 µM in experiment [3]. Also, the “fold higher KI without SspB” value in experiment [7] is no less than 10 fold.
